Among the data in paper PMC4014986 are K (ATPase) of the steady-state actin-activated ATPase (NADH-coupled assay) and half-maximum value (Kact) of the phosphate dissociation rate against F-actin concentration (MDCC-PBP, double-mixing stopped flow) values, retold here.

Like-named read-outs stand apart in the source and are kept apart here.

Experiment [1] has as its target Actin filaments (F-actin) from rabbit skeletal muscle (rabbit) (UniProt P68135).
Experiment [2] shares this target. The source holds these as a separate data set.
For experiment [3] the target is unchanged. This is another data set of the same source.

Sequence of Myosin 5c subfragment 1 (Myo5c-S1, 1-785 amino acids) (Q9NQX4 1-785): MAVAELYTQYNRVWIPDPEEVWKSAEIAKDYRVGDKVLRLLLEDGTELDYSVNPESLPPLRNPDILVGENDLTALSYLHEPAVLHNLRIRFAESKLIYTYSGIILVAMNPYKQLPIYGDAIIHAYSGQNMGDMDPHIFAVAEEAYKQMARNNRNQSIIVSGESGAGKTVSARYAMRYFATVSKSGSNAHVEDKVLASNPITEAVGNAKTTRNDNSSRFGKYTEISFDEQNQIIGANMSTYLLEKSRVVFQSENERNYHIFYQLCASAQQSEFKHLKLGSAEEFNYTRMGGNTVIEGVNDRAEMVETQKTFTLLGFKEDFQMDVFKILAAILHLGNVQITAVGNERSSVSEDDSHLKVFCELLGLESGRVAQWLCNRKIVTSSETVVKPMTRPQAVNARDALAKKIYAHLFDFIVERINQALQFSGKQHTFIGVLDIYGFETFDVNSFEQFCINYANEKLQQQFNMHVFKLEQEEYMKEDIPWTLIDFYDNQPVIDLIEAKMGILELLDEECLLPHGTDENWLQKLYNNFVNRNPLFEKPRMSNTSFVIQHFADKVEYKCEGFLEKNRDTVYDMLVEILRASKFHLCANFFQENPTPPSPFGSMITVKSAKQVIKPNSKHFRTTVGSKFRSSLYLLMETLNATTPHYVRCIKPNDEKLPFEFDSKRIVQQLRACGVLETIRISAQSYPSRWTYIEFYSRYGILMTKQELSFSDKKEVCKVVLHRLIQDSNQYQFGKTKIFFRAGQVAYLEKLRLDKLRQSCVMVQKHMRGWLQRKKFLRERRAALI

“Myosin 5c subfragment 1 (Myo5c-S1, 1-785 amino acids) (from UniProt Q9NQX4 1-785) (domain or fragment)”: the values for the K (ATPase) of the steady-state actin-activated ATPase (NADH-coupled assay) in experiment [1] and in experiment [2] were 26 µM and 35 µM, respectively. The substance also gave a half-maximum value (Kact) of the phosphate dissociation rate against F-actin concentration (MDCC-PBP, double-mixing stopped flow) in experiment [3] of 14.6 µM.
